For assay [1], the target named is DC-SIGN on THP-1 cells induced with PMA and IL-4 (DC-THP-1) (human (endogenous in THP-1)) (UniProt Q9NNX6).
For assay [2], the target named is human DC-SIGN expressed on HEK 293T cells (DC-HEK) (human) (UniProt Q9NNX6).

Here are results for one substance from PMC9367475.

For the substance “recombinant SARS-CoV-2 spike protein (from UniProt P0DTC2 14-1273) (natural protein)”, in assay [1], the IL-1β mRNA (RT-qPCR, 6 h and 12 h: ~ -2.5 to ~ -4 log10) in DC-THP-1 cells challenged with Spike protein pre-incubated with rfhSP-D 20 µg/ml, against Spike protein without rfhSP-D is -4; the IL-6 mRNA (RT-qPCR, 12 h) in DC-THP-1 cells challenged with Spike protein pre-incubated with rfhSP-D 20 µg/ml, against Spike protein without rfhSP-D is -5; the IL-8 mRNA (RT-qPCR, 6 h and 12 h: ~ -2.3 to ~ -4.8 log10) in DC-THP-1 cells challenged with Spike protein pre-incubated with rfhSP-D 20 µg/ml, against Spike protein without rfhSP-D is -4.8; the MHC class II mRNA (RT-qPCR, 6 h and 12 h: - 2 to - 2.7 log10) in DC-THP-1 cells challenged with Spike protein pre-incubated with rfhSP-D 20 µg/ml, against Spike protein without rfhSP-D was -2.7. Moreover, in assay [1], the NF-κB mRNA (RT-qPCR, 6 h and 12 h: ~ -1 to ~ -4 log10) in DC-THP-1 cells challenged with Spike protein pre-incubated with rfhSP-D 20 µg/ml, against Spike protein without rfhSP-D was -4; the TNF-α mRNA (RT-qPCR, 6 h and 12 h: ~ -3.1 to ~ -6.8 log10) in DC-THP-1 cells challenged with Spike protein pre-incubated with rfhSP-D 20 µg/ml, against Spike protein without rfhSP-D is -6.8. Also, in assay [2], the IFN-α mRNA (RT-qPCR, 6 h) in DC-HEK cells challenged with Spike protein pre-incubated with rfhSP-D 20 µg/ml, against Spike protein without rfhSP-D is -2.1; the NF-κB mRNA (RT-qPCR, 6 h) in DC-HEK cells challenged with Spike protein pre-incubated with rfhSP-D 20 µg/ml, against Spike protein without rfhSP-D was -1.2; the RANTES mRNA (RT-qPCR, 6 h) in DC-HEK cells challenged with Spike protein pre-incubated with rfhSP-D 20 µg/ml, against Spike protein without rfhSP-D was -1.3; the TNF-α mRNA (RT-qPCR, 6 h) in DC-HEK cells challenged with Spike protein pre-incubated with rfhSP-D 20 µg/ml, against Spike protein without rfhSP-D was -3.3.
